Measurements taken from patent CN114989293A (UNIV CHONGQING MEDICAL; FENG YULIN, dated 2022).

B1: 单抗12-CQTS077 (antibody, V domains shown)
VH: EVQLVESGGGVVQPGGSLRLSCAASGFTFDDYAMNWVRQAPGKGLEWVSLISGDGDSPSYSGSVKGRFTISRDNSKNSLYLQMISLRTEDTALYYCARESPKLTGYFDYWGQGTLVTVSS
VL: SYVLTQPPSVSVAPGQTAGITCGGDDIGSKNVHWYQQKPGQAPVLVVYDDHDRPSGIPERFSGSNSGNTATLTISRVEAGDEADYYCQVWDSSSDPYVFGTGTKVTVL
B2: 单抗14-CQTS079 (antibody, V domains shown)
VH: EVQLVESGGGLIQPGGSLRLSCAASGFTVSSNYMSWVRQAPGKGLEWVSVIYSGDNTYYADSVKGRFTISRDNSKNTLYLQMNSLRAEDTAVYYCAKMLWLRGWFDPWGQGTLVTVSS
VL: NFMLTQPHSVSESPGKTVTISCTRSSGSIASNYVQWYQQRPGSAPTTVIYEDNQRPSGVPDRFSGSIDSSSDSASLTISGLKTEDEADYYCQSYDTSNHWVFGGGTKLTVL
B3: 单抗19-CQTS086 (antibody, V domains shown)
VH: EVQLVESGGGLVQPGGSLRLSCAASGITVNSNYMSWVRQAPGKGLEWVSVIYNGVTTYYADSVKGRFTISRDISKNTVYLQMNSLRAEDTAVYYCARAGWLRGRFDPWGQGTLVIVSS
VL: SYVLTQPPSVSVAPGQTASITCGGSNIGSKNVHWYQQKSGQAPVLVVYDDSDRPSGIPERFSGSNSGNTATLIINRVEAGDEADYYCQVWDSTTDLPHWVFGGGTKLTVL
B4: 单抗15-CQTS080 (antibody, V domains shown)
VH: QVTLRESGPALVRPTQTLTLTCTFAGFSLRTHGMCVSWIRQPPGKALEWLARIDWDGDKYYSTSLKTRLTISKDTSKDQVVLTMTNMDPVDTATYYCARFLVGGFKAWFDPWGQGTLVTVSS
VL: QSVLTQPPSVSAAPGQKVTISCSGSSSNIGNNYVSWYQQLPGIAPELLIYDNNKRPSGIPGRFSGSRSGTSATLDITGLQTGDEADYYCGTWDTSLNVWVFGGGTKLTVL
B5: 单抗13-CQTS078 (antibody, V domains shown)
VH: QVQLVQSGAEVKKPGASVRVSCKASGDTFSSHYIHWVRQAPGQGLEWMGIINPSGGSTSYAQKFQGRVTMTSDTSTSTVYLELSSLRSEDTAVYYCARDQAFIVATLGPDYWGQGILVTVSS
VL: QTVVTQEPSFSVSPGGTVTLTCGLSSGSVSTSYYASWYQQTPGQAPRTLIYSTNTRSSGVPDRFSGSILGNKAALTITGAQADDESDYYCVLYMGSGIWVFGGGTKLTVL
B6: 单抗18-CQTS083 (antibody, V domains shown)
VH: EVQLVESGGGLVQPGGSLRLSCAASGLTVSSNYMSWVRQAPGKGLEWVSLIYSGGSTYYADSVKGRFTISRHNSKNTLYLQMNSLRAEDTAVYYCARDLEERGAMDVWGQGTTVTVSS
VL: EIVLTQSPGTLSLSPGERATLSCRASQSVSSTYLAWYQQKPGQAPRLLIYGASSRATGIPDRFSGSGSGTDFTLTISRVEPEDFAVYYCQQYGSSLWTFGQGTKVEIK
B7: 单抗17-CQTS082 (antibody, V domains shown)
VH: EVQLVQSGAEVKKPGESLKISCKGSGYSFSTYWIGWVRQMPGKGLEWMGIIYPYDSDTRYSPSFQGQVTISADKSISTAYLQWSSLKASDTAIYYCARQESGWSFDYWGQGTLVTVSS
VL: DIQMTQSPSSLSASVGDRVTITCRASQNINKYLNWYQQKPGKAPKLLIYVASSLQSGVPSRFSGSGSGTDFTLTISSLQPEDFATYYCQQSYSTPRTFGQGTKVEIK

Molecular target: 新冠病毒(SARS-CoV-2) S蛋白受体结合域 RBD (SARS-CoV-2, UniProt P0DTC2 319-541)
Assay: ELISA, antigen coated at 2 μg/mL, 293T supernatant, anti-human IgG-ALP detection

| Binder | binding result |
| --- | --- |
| B1 | binds |
| B2 | binds |
| B3 | binds |
| B4 | binds |
| B5 | binds |
| B6 | binds |
| B7 | binds |
